Data as given in patent US20220177587A1, “METHODS AND USES OF VARIANT CD80 FUSION PROTEINS AND RELATED CONSTRUCTS” (Alpine Immune Sciences, Inc., priority 2018, published 2022).

Legend:
CD28 [1] = target: T1, CD28 (Homo sapiens, UniProt P10747); test: CD28 costimulation via Fc receptor or PD-L1 dependent cross-linking (Jurkat/IL2 + K562/OKT3 +/- PD-L1); type: cell-based; set-up: host or cells: Jurkat cells expressing an IL-2-luciferase reporter; settings: K562/0KT3 aAPC, luciferase signal
Procedure: In a further experiment, CD28 costimulation was assessed for variant CD80-IgV-Fc fusion proteins, where the Fc was an IgG1 Fc (e.g. SEQ ID NO:1517) capable of mediating effector activity via binding to Fc receptors (FcR). The experiment was carried out as described in part A above, except CD32-expressing K562 cells stably transduced with OKT3 (K562/OKT3) or OKT3 and PD-L1 (K562/OKT3/PD-L1) were used instead of the CHO/OKT3 and CHO/OKT3/PD-L1 cells, and the results are depicted in Table E9.

Pan T cells = test: Primary T cell stimulation assay with K562/OKT3 +/- PD-L1 (IL-2, IFN-gamma, proliferation); type: cell-based, human; settings: 1, 10, 100 nM; 72 hr
Procedure: IFN-gamma, IL-2 and proliferation were determined after 72 hr. incubation.

CD28 [2] = target: T1, CD28; test: Jurkat/IL2 + CHO/OKT3 +/- PD-L1 reporter assay: PD-L1-dependent CD28 costimulation; type: cell-based; set-up: host or cells: Jurkat cells expressing an IL-2-luciferase reporter; settings: for PD-L1-Dependent CD28 Costimulation, +PD-L1, 0.6 nM / PD-L1-Dependent CD28 Costimulation, +PD-L1, 50 nM: CHO/OKT3/PD-L1 aAPC; for PD-L1-Dependent CD28 Costimulation, +PD-L1, 0.6 nM / PD-L1-Dependent CD28 Costimulation, +PD-L1, 50 nM / PD-L1-Dependent CD28 Costimulation, No PD-L1, 50 nM / PD-L1-Dependent CD28 Costimulation, No PD-L1, […]: luciferase signal; for PD-L1-Dependent CD28 Costimulation, No PD-L1, 50 nM / PD-L1-Dependent CD28 Costimulation, No PD-L1, […]: CHO/OKT3 aAPC
How it was run: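 Readout is relative luminescence from lysed cocultures: test protein given 15 min at room temperature to Jurkat cells before adding CHO artificial APCs displaying OKT3 alone or OKT3 plus PD-L1, then 5 h at 37 °C, 5% CO2.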

CD28 [3] = target: T1, CD28; test: Jurkat/IL2 reporter assay: blockade of CD28 costimulation (plate-bound anti-CD3/CD86-Fc); type: cell-based; set-up: host or cells: Jurkat cells expressing an IL-2-luciferase reporter; settings: Table E5; protein diluted to 40 nM before mixing with cells; 5 hours
How it was run: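 Readout is Bio-Glo luminescence after a 5 h, 37 °C stimulation of IL-2-luciferase Jurkat reporter cells on wells precoated (overnight, 4 °C) with anti-CD3 antibody and CD86-Fc. Cells were first mixed with CD80-Fc test proteins for 15 min at room temperature.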

huCTLA4 = huCTLA4 (Homo sapiens, UniProt P16410); test: Flow binding to CHO cells stably expressing CTLA4; set-up: huCTLA4 and huPD-L1, full-length mammalian surface expression constructs were generated; expressed in transfected cells; host or cells: CHO cells, lentiviral transduction, sorted to >98% purity; settings: for CTLA4 MFI at 33.3 nM: Table E19, CHO cells stably expressing CTLA4
How it was run: (§1)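 Cells were first blocked in PBS with 1% BSA and 0.1% sodium azide. Primary staining with fusion protein ran 45 min on ice, and secondary staining with PE anti-human Fc at 1:150 ran 30 min on ice.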

huPD-L1 = huPD-L1 (Homo sapiens, UniProt Q9NZQ7); test: Flow binding to CHO cells stably expressing PD-L1; set-up: huCTLA4 and huPD-L1, full-length mammalian surface expression constructs were generated; expressed in transfected cells; host or cells: CHO cells, lentiviral transduction, sorted to >98% purity; settings: for PD-L1 MFI at 33.3 nM: Table E19, CHO cells stably expressing PD-L1
How it was run: as §1

CD28 [4] = target: T1, CD28; test: Flow binding to Jurkat/IL2 reporter cells (CD28); set-up: host or cells: Jurkat cells expressing an IL-2-luciferase reporter; settings: for CD28 MFI at 33.3 nM: Table E19, Jurkats (CD28)
How it was run: as §1

MC38 hPD-L1 tumor cells = test: MC38 hPD-L1 tumor model in C57BL/6 mice; type: in vivo, mouse
Procedure: Mouse MC38 tumor cells were stably transfected with human PD-L1 (MC38 hPD-L1) and implanted subcutaneously into C57BU6 mice. […] Tumor volume was tracked over time.
70 female C57CL/6 mice, containing similar tumor volumes of approximately 50-51 mm^3, following implantation of MC38 hPD-L1 tumor cells, were staged and divided into 5 treatment groups containing 14 mice each. […] Tumor volumes were measured on days 7, 10, and 12. On day 13, 5 animals were sacrificed for analysis as described in the sections below. Tumor measurements resumed for the remaining 9 mice for each group on days 17, 20 and 27. On days 26, 28, and 31, the animals in Group 1 (Fc isotype control) received an intratumoral injection of 100 μg E35D/M47L CD80-IgV-Fc.
95 female C57BU6 mice were implanted with MC38 hPD-L1 tumor cells. The tumors were staged on Day 7, and 77 mice with similar tumor volumes of approximately 60 mm^3 were divided into 7 treatment groups containing 11 mice each.
On day 49, tumor-free mice, from Groups 3, 4, 6, and 7, and 2 naïve C57CL/6 mice were re-challenged with an additional injection of hPD-L1 MC38 cells. Tumor volumes were measured on days 56, 59, and 63. The results are depicted in FIG. 13. […] At day 59, 8/8 mice from Group 3, 1/2 mice from Group 4, 1/1 mouse from Group 6, and 2/2 mice from Group 7 were tumor-free, and by day 63, all mice in Group 3, Group 4, Group 6, and Group 7 were tumor-free.
75 animals were staged into 3 treatment groups 7 days after implantation with hPD-L1 MC38 tumor cells. […] Tumor volumes were measured every 3-4 days, from Day 11 until Day 35. 3 days after the 1st dose, 2nd dose and 3rd dose, 4 mice from each group were sacrificed for tumor and LN analyses, leaving 13 mice for tumor volume measurements throughout the study period.

CD28 [5] = target: T1, CD28; test: Jurkat/IL2 + K562/OKT3 (no PD-L1) reporter assay of CD80 ECD-Fc (effector); type: cell-based; set-up: host or cells: Jurkat cells expressing an IL-2-luciferase reporter; settings: aAPC without PD-L1
Procedure: The bioactivity of the generated molecules also was assessed using a Jurkat report assay as described in Examples 9 to assess CD28 costimulation of the molecules.

[6] = re-challenged on day 49 with hPD-L1 MC38 cells

Chain of huPD-L1 (Q9NZQ7 19-290): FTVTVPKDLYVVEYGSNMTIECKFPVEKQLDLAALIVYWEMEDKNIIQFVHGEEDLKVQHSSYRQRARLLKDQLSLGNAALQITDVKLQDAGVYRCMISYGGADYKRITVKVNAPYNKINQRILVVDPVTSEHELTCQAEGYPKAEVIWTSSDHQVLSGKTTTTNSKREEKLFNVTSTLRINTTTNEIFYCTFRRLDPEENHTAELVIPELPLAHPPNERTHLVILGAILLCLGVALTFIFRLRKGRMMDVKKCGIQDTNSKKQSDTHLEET
Chain of huCTLA4 (P16410 36-223): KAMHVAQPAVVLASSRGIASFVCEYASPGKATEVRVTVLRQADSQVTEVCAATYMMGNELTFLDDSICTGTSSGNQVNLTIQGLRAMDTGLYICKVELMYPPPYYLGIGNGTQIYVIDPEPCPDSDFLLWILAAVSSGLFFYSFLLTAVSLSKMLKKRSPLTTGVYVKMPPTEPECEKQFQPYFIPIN

CD28 costimulation, FcR Dependent Cross-Linking (No PD-L1), 0.6 nM (CD28 [1]) | CD28 costimulation, FcR Dependent Cross-Linking (No PD-L1), 50 nM (CD28 [1]) | PD-L1-Dependent CD28 Costimulation, +PD-L1, 0.6 nM (CD28 [2]) | PD-L1-Dependent CD28 Costimulation, +PD-L1, 50 nM (CD28 [2]) | PD-L1-Dependent CD28 Costimulation, No PD-L1, 50 nM (CD28 [2]) | PD-L1-Dependent CD28 Costimulation, No PD-L1, […] (CD28 [2]) | Average Relative Luminescence Units (CD28 [3]) | CTLA4 MFI at 33.3 nM (huCTLA4) | PD-L1 MFI at 33.3 nM (huPD-L1) | CD28 MFI at 33.3 nM (CD28 [4]) | Molecule | other results
1337 | 1510 | 529 | 476 | 440 | 417 |  |  |  |  | E35G/K54E/A71D/L72P: variant CD80 IgV-Fc, IgV SEQ ID NO:219 (protein) VIHVTKEVKEVATLSCGHNVSVEELAQTRIYWQKGKKMVLTMMSGDMNIWPEYENRTIFDITNNLSIVILDPRPSDEGTYECVVLKYEKDAFKREHLAEVTLSVKAD | CD28 costimulation and IL-2 production (Pan T cells): did not generate significant costimulation and IL-2 production
1880 | 7015 | 611 | 2224 | 720 | 511 | 3230 Relative Luminescence Units | 48005 | 4039 | 196 | E35D/D46V/L85Q: variant CD80 IgV-Fc, IgV SEQ ID NO:203 (protein) VIHVTKEVKEVATLSCGHNVSVEELAQTRIYWQKDKKMVLTMMSGVMNIWPEYKNRTIFDITNNLSIVILALRPSDEGTYECVVQKYEKDAFKREHLAEVTLSVKAD | Relative Luciferase Units (RLU), CD80 Conc 5.0 nM (CD28 [2]; Table E21, Jurkat/IL2 + CHO/OKT3/PD-L1, CD80 Conc 5.0 nM): 410 RLU
2119 | 8685 |  |  |  |  | 1110 Relative Luminescence Units | 48010 | 7529 | 411 | E35D/M47L: variant CD80 IgV-Fc, IgV SEQ ID NO:208 (protein) VIHVTKEVKEVATLSCGHNVSVEELAQTRIYWQKDKKMVLTMMSGDLNIWPEYKNRTIFDITNNLSIVILALRPSDEGTYECVVLKYEKDAFKREHLAEVTLSVKAD | mice with no detectable tumors (tumor-free) upon completion of the study (MC38 hPD-L1 tumor cells; 100 μg on days 7, 9 and 11, 11 mice per group): 1 mice; tumor growth / tumor volume (MC38 hPD-L1 tumor cells; i.p. dosing, compared to Fc control or anti-PD-L1): dose-dependent decrease in tumor volumes; tumor-free mice after re-challenge, day 59 (MC38 hPD-L1 tumor cells; [6]): 1/1; tumor-free mice after re-challenge, day 63 (MC38 hPD-L1 tumor cells; [6]): tumor-free
 |  |  |  |  |  |  |  |  |  | CD80 (A91G/I118V/T120S/T130A) ECD-Fc: variant full CD80 ECD fused to effector human IgG1 Fc (SEQ ID NO:1527) (protein) VIHVTKEVKEVATLSCGHNVSVEELAQTRIYWQKEKKMVLTMMSGDMNIWPEYKNRTIFDITNNLSIVILALRPSDEGTYECVVLKYEKDGFKREHLAEVTLSVKADFPTPSISDFEVPSSNIRRIICSASGGFPEPHLSWLENGEELNAINTTVSQDPETELYAVSSKLDFNMTTNHSFMCLIKYGHLRVNQTFNWNTTKQEHFPDN | Relative Luminescence at 98 pM (CD28 [5]; 98 pM): 1098 RLU; Relative Luminescence at 391 pM (CD28 [5]; 391 pM): 1119 RLU; Relative Luminescence at 1563 pM (CD28 [5]; 1563 pM): 1288 RLU; Relative Luminescence at 6250 pM (CD28 [5]; 6250 pM): 1761 RLU; Relative Luminescence at 25000 pM (CD28 [5]; 25000 pM): 2209 RLU; Relative Luminescence at 100000 pM (CD28 [5]; 100000 pM): 2750 RLU; CHO/CTLA4 MFI at 66.7 nM (huCTLA4; 66.7 nM): 24801; EC50 (huCTLA4; flow binding): 4.3 nM; CHO/PD-L1 MFI at 66.7 nM (huPD-L1; 66.7 nM): 107; Jurkat/CD28 MFI at 66.7 nM (CD28 [4]; 66.7 nM): 720; EC50 (CD28 [4]; flow binding, read-out: Jurkat/CD28 EC50): > 200 nM
